A word on the IC50: it is the point on the concentration scale where inhibition reaches its midpoint.

One assay deals with T1, IGFBP-3 (Homo sapiens, UniProt P17936).
T1 construct: made in house
Nature of the assay: competitive phage ELISA of IGF-1 mutants, IGFBP-3. The note with it: for IC50: phage display, soluble IGFBP-3 competitor; for larger effects on IGFBP-3 than on IGFBP-1 binding / increase in IGFBP-3 binding: phage ELISA. The format is binding. On the procedure: (§1) An alanine-scanning mutagenesis approach (Cunningham and Wells, Science, 244: 1081-1085 (1989); U.S. Pat. No. 5,834,250) was used to remove that portion of each side chain of IGF-1 beyond the beta carbon. The contribution of these atoms to the free energy of binding of the IGF-1 analog to IGFBP-1 or to IGFBP-3 was then assessed by competitive phage ELISA. In this assay, IGFBP-1 or IGFBP-3 is used to inhibit IGF-phage mutants from binding to an IGFBP-1- or IGFBP-3-coated immunosorbant plate.
(§2) Immunosorbent plates (Nunc, MAXISORP™, 96 wells) were coated with 100 μl/well of 1 μg/ml IGFBP-1 or IGFBP-3 in PBS buffer pH 7.2 at 4° C. overnight. The plates were then blocked with 0.5% TWEEN 20™/PBS (also used as binding buffer) for 2 hours at room temperature (proteinaceous blocking agents like bovine serum albumin were avoided to prevent potential IGF or IGFBP contamination). E. coli cells (XL1-Blue, Stratagene) freshly transformed with phagemid vector were grown overnight in 5 mL 2YT medium (Sambrook et al., supra) in the presence of M13-VCS helper phage (Stratagene). Phage particles were harvested and resuspended in PBS buffer as described in Lowman, H. B., “Phage Display of Peptide Libraries on Protein Scaffolds,” in Cabilly, S. (ed.), Combinatorial Peptide Library Protocols (Humana Press Inc.: Totowa, N.J., 1998), pp. 249-264. Then phage concentrations were normalized to yield a maximal ELISA signal of 0.2-0.4 for each mutant (Lowman, in Cabilly, S. (ed.), supra). Threefold serial dilutions of soluble competitor were prepared on non-absorbent microtiter plates (Nunc, F, 96 wells) with binding buffer (0.5% TWEEN 20™/PBS) containing phage at the previously determined concentrations. The dilution range of competitor protein extended over six orders of magnitude, starting at 5 μM for IGFBP-1 and 500 nM for IGFBP-3. After blocking, the plates containing immobilized target were washed with 0.05% TWEEN™/PBS buffer and subsequently incubated with 80 μl/well of the premixed phage-competitor solutions for 1 hour at room temperature. After washing, bound phage was detected with 80 μl/well of a solution containing a primary rabbit anti-phage polyclonal antibody and a secondary goat anti-rabbit monoclonal antibody-horseradish peroxidase conjugate in 0.5% TWEEN 20™/PBS. o-Phenylenediamine (Sigma) and tetramethylbenzidine (Kirkegaard and Perry) were used as chromogenic substrates, resulting in product detection at 492 and 450 nm, respectively. IC50 values were determined by fitting the binding data to a generic saturation curve (Lowman, in Cabilly, S. (ed.), supra). At least two individual clones of each IGF-1 mutant were assayed. Numbers in Table XIII represent mean±standard deviation of individually assessed IC50 values.
(In general: In an ELISA, binding on a coated surface is turned into a signal by an enzyme label.)

Assay [1] concerns the target T2, IGFBP-1 (Homo sapiens, UniProt P08833).
T2 sequence (P08833 26-259): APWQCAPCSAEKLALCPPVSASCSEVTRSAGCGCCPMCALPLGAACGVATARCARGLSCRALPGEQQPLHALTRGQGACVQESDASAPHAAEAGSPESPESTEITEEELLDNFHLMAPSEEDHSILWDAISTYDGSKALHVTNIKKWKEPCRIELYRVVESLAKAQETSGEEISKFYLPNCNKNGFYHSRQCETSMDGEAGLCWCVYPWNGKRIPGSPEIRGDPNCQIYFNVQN
Nature of the assay: competitive phage ELISA of IGF-1 mutants, IGFBP-1. The format is binding. The following applies: for IC50: phage display, soluble IGFBP-1 competitor. Also on record: made in house; host or cells: CHO cells. Here is the method: as §1, §2

Assay [2] relates to IGFBP-1. Put plainly: competitive phage ELISA of IGF-1 mutants, IGFBP-1. It is filed as binding, human. The following applies: relative IC50 IGFBP-1/relative IC50 IGFBP-3. Here is the method:
as §1, §2

The mark [3] stands for this setting: IC50 mut/IC50 G1S-A70V, listed as des(1-2)-IGF-1.

T1 sequence (P17936 28-291): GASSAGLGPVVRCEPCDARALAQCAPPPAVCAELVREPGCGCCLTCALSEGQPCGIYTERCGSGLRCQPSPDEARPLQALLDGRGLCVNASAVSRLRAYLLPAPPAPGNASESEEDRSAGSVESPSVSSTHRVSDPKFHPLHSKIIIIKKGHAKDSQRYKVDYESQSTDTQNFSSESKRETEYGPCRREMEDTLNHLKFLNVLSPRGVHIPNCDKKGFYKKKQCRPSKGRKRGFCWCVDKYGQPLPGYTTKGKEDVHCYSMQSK

With L10A: IGF-1 single alanine mutant, the values for the concentration for half-maximal inhibition (IC50) with IGFBP-3 and with IGFBP-1 [1] were 3.55 ± 0.33 nM and 311 ± 87 nM, respectively.
In turn, Q15A: IGF-1 single alanine mutant displayed a relative specificity in the assay with IGFBP-1 [2] of 1.0. Also, the IC50 with IGFBP-3 worked out at 1.26 ± 0.41 nM; with IGFBP-1 [1] it was 13.9 ± 0.9 nM.
On to Y24A: IGF-1 single alanine mutant, for which the relative specificity with IGFBP-1 [2] is reported as 0.5. In the assay with IGFBP-3, the “larger effects on IGFBP-3 than on IGFBP-1 binding” value (“larger effects on IGFBP-3 than” below) is “about 2 fold” and the IC50 is 2.53 ± 0.76 nM. The same substance registered an IC50 with IGFBP-1 [1] of 13.3 ± 2.9 nM.
The substance K27A: IGF-1 single alanine mutant returned a relative specificity in the assay on IGFBP-1 [2] of 1.8. The results for the IC50 with IGFBP-3 and with IGFBP-1 [1] were 0.66 ± 0.35 nM and 12.8 ± 0.1 nM, respectively.
The matching figures for I43A: IGF-1 single alanine mutant: 2.4, 1.17 ± 0.07 nM and 31.3 ± 4.1 nM.
In the case of E9A: IGF-1 single alanine mutant, the relative specificity in the assay on IGFBP-1 [2] came out at 0.6. In addition, in the assay with IGFBP-3, the “larger effects on IGFBP-3 than” value is “about 2 fold” and the IC50 is 1.32 ± 0.3 nM. In addition, the IC50 with IGFBP-1 [1] was 8.6 ± 0.6 nM.
In the assay on IGFBP-1 [2], P28A: IGF-1 single alanine mutant displayed a relative specificity of 0.6. Also, the IC50 in the assay with IGFBP-3 amounted to 1.41 ± 0.05 nM; with IGFBP-1 [1] it was 9.3 ± 1.4 nM.
For R21A: IGF-1 single alanine mutant, in that order: 1.1, 0.58 ± 0.01 nM and 7.1 ± 1.6 nM.
In the assay with IGFBP-1 [2], E58A: IGF-1 single alanine mutant registered a relative specificity of 1.1. In addition, the IC50 came out at 1.03 ± 0.47 nM with IGFBP-3 and 11.9 ± 1.8 nM in the assay with IGFBP-1 [1].
For L14A: IGF-1 single alanine mutant, in that order: 3.7, 0.9 ± 0.04 nM and 36.7 ± 1.1 nM.
The matching figures for P2A: IGF-1 single alanine mutant: 1.2, 0.81 ± 0.18 nM and 11 ± 3.7 nM.
Turning to M59A: IGF-1 single alanine mutant, in the assay with IGFBP-1 [2], the relative specificity is reported as 1.6. For the same substance, the IC50 is 0.74 ± 0.14 nM in the assay with IGFBP-3 and 13.1 ± 1.8 nM with IGFBP-1 [1].
As to L54A: IGF-1 single alanine mutant, in the assay with IGFBP-1 [2], the relative specificity was determined as 1.2. Further, the figures for the IC50 in the assay with IGFBP-3 and with IGFBP-1 [1] were 1.83 ± 0.91 nM and 23.1 ± 12 nM, respectively.
For P66A: IGF-1 single alanine mutant, in that order: 1.5, 0.57 ± 0.12 nM and 9.4 ± 3.2 nM.
The matching figures for K65A: IGF-1 single alanine mutant: 1.6, 0.69 ± 0.05 nM and 12.4 ± 0.6 nM.
As for S35A: IGF-1 single alanine mutant, the relative specificity in the assay on IGFBP-1 [2] was found to be 2.3. Moreover, in the assay with IGFBP-3, the “increase in IGFBP-3 binding” value is “approximately 2 fold” and the IC50 turned out to be 0.47 ± 0.01 nM. In the assay with IGFBP-1 [1], this substance yielded a concentration for half-maximal inhibition (IC50) of 11.7 ± 0.6 nM.
For the substance P63A: IGF-1 single alanine mutant, the figures for the half-inhibitory concentration (IC50) in the assay with IGFBP-3 and in the assay with IGFBP-1 [1] were more than 100 nM and more than 1000 nM, respectively.
For the substance D45A: IGF-1 single alanine mutant, in the assay on IGFBP-1 [2], the relative specificity turned out to be 0.6. Moreover, in the assay with IGFBP-3, the “larger effects on IGFBP-3 than” value was “about 2 fold” and the IC50 stood at 0.69 ± 0.21 nM. Besides, in the assay with IGFBP-1 [1] (phage ELISA), the “increase in IGFBP-1 binding” value was “approximately 2 fold”. For the same substance, the IC50 in the assay with IGFBP-1 [1] worked out at 4.7 ± 0.7 nM.
Substance L57A: IGF-1 single alanine mutant yielded a relative specificity in the assay with IGFBP-1 [2] of 1.1. In addition, the concentration for half-maximal inhibition (IC50) with IGFBP-3 was 1.78 ± 0.56 nM; in the assay with IGFBP-1 [1], 21.8 ± 5.6 nM.
As for “Des(1-2)-IGF: IGF-1 mutant lacking residues 1 and 2”, in the assay on IGFBP-1 [2], the relative specificity amounted to 0.9. Moreover, the “IGFBP-3 relative IC50” value in the assay with IGFBP-3 (setting [3]) is “no difference in affinity”. In the assay with IGFBP-1 [1] (setting [3]), the “IGFBP-1 Relative IC50” value is “no difference in affinity”.
G30A: IGF-1 single alanine mutant returned a relative specificity with IGFBP-1 [2] of 1.1. Further, the figures for the IC50 in the assay with IGFBP-3 and with IGFBP-1 [1] were 0.58 ± 0.11 nM and 7.1 ± 1.7 nM, respectively.
In the assay on IGFBP-1 [2], R55A: IGF-1 single alanine mutant displayed a relative specificity of 1.2. For the same substance, the 50% inhibitory concentration (IC50) is 0.66 ± 0.03 nM with IGFBP-3 and 9 ± 2.3 nM with IGFBP-1 [1].
N26A: IGF-1 single alanine mutant showed a relative specificity in the assay with IGFBP-1 [2] of 0.9. Moreover, the half-inhibitory concentration (IC50) with IGFBP-3 is 0.9 ± 0.07 nM; in the assay with IGFBP-1 [1], 9.1 ± 1.8 nM.
In the case of G7A: IGF-1 single alanine mutant, the IC50 in the assay with IGFBP-3 was 4.58 ± 0.28 nM; with IGFBP-1 [1], more than 1000 nM.
Turning to Y60A: IGF-1 single alanine mutant, the relative specificity in the assay with IGFBP-1 [2] amounted to 1.2. Further, the IC50 was found to be 0.52 ± 0.01 nM with IGFBP-3 and 6.6 ± 1.8 nM with IGFBP-1 [1].
Turning to “S1G: single mutant of G1S-A70V IGF-1 restoring G1”, in the assay with IGFBP-1 [2], the relative specificity stood at 1.0.
In the assay on IGFBP-1 [2], S33A: IGF-1 single alanine mutant showed a relative specificity of 0.8. Besides, the IC50 with IGFBP-3 amounted to 1.01 ± 0.24 nM; in the assay with IGFBP-1 [1], 9.1 ± 1 nM.
The matching figures for R37A: IGF-1 single alanine mutant: 1.5, 0.75 ± 0.08 nM and 12.3 ± 0.1 nM.
Turning to “V70A: single mutant of G1S-A70V IGF-1 restoring A70”, the relative specificity in the assay with IGFBP-1 [2] came to 2.6.
In the assay on IGFBP-1 [2], F23A: IGF-1 single alanine mutant returned a relative specificity of 0.5. In the assay with IGFBP-3, the “larger effects on IGFBP-3 than” value was “about 2 fold” and the IC50 was determined as 2.18 ± 0.01 nM. The same substance had an IC50 with IGFBP-1 [1] of 10.9 ± 1.9 nM.
As for K68A: IGF-1 single alanine mutant, the relative specificity with IGFBP-1 [2] came to 1.3. Besides, the IC50 with IGFBP-3 was determined as 0.76 ± 0.23 nM; in the assay with IGFBP-1 [1], 10.5 ± 2.8 nM.
Q40A: IGF-1 single alanine mutant returned a relative specificity in the assay on IGFBP-1 [2] of 1.7. In addition, the values for the IC50 in the assay with IGFBP-3 and with IGFBP-1 [1] were 0.56 ± 0.03 nM and 10.2 ± 0.9 nM, respectively.
The matching figures for G32A: IGF-1 single alanine mutant: 1.3, 0.76 ± 0.28 nM and 10.9 ± 1.3 nM.
For V17A: IGF-1 single alanine mutant, in that order: 1.1, 3.67 ± 1.02 nM and 42.9 ± 3.2 nM.
Turning to D20A: IGF-1 single alanine mutant, the relative specificity in the assay on IGFBP-1 [2] is 0.7. The results for the IC50 in the assay with IGFBP-3 and in the assay with IGFBP-1 [1] were 1.11 ± 0.06 nM and 8.4 ± 4.1 nM, respectively.
The matching figures for R56A: IGF-1 single alanine mutant: 1.2, 1 ± 0.19 nM and 13.1 ± 1.8 nM.
Substance G19A: IGF-1 single alanine mutant registered a relative specificity with IGFBP-1 [2] of 1.1. The figures for the half-inhibitory concentration (IC50) in the assay with IGFBP-3 and with IGFBP-1 [1] were 0.9 ± 0.28 nM and 11 ± 2.3 nM, respectively.
T29A: IGF-1 single alanine mutant displayed a relative specificity with IGFBP-1 [2] of 0.5. In addition, the “larger effects on IGFBP-3 than” value in the assay with IGFBP-3 is “about 2 fold”. Moreover, the IC50 with IGFBP-3 was 1.23 ± 0.16 nM; with IGFBP-1 [1] it was 7.3 ± 2.4 nM.
Turning to T41A: IGF-1 single alanine mutant, in the assay on IGFBP-1 [2], the relative specificity worked out at 2.9. In addition, in the assay with IGFBP-3, the “increase in IGFBP-3 binding” value is “approximately 2 fold” and the IC50 worked out at 0.43 ± 0.06 nM. In the assay with IGFBP-1 [1], the half-maximal inhibitory concentration (IC50) was 13.7 ± 3.1 nM.
For L5A: IGF-1 single alanine mutant, the relative specificity in the assay on IGFBP-1 [2] was found to be 3.3. In addition, the IC50 with IGFBP-3 was found to be 1.53 ± 0.22 nM; with IGFBP-1 [1], 55.3 ± 11.6 nM.
Turning to E3A: IGF-1 single alanine mutant, the IC50 in the assay with IGFBP-3 worked out at 1.05 ± 0.08 nM; in the assay with IGFBP-1 [1], 278 ± 86 nM.

(Values after US7423017B2, “Method for treating cartilage disorders” (Genentech, Inc., priority 1997, dated 2008).)
